Test results taken from article PMC4425231.

What was measured:
[1] = target: p50 dimerization domain (UniProt P25799); assay: AUC + SEC
[2] = target: IκBβ (endogenous, MEF cytoplasmic extract) (mouse (endogenous in MEFs)) (UniProt Q60778); assay: kinetic model fitted to immunoblot abundances of IκBs in NFκB-knockout MEFs
[3] = target: IκBβ (endogenous, MEF cytoplasmic extract) (mouse (endogenous in MEFs)) (UniProt Q60778); assay: immunodepletion followed by deoxycholate EMSA

Sequence of IκBβ (endogenous, MEF cytoplasmic extract) (mouse (endogenous in MEFs)) (Q60778 whole entry): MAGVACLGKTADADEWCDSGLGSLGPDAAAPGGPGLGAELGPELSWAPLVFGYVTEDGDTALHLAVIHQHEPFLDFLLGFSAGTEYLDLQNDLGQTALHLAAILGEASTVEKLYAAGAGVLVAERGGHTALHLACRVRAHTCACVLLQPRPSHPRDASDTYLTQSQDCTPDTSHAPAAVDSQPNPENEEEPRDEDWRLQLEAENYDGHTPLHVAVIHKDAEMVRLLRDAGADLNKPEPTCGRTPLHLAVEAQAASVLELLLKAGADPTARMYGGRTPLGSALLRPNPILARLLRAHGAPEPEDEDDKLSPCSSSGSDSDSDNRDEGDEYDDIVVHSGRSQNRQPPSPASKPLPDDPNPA
Sequence of p50 dimerization domain (P25799 1-431): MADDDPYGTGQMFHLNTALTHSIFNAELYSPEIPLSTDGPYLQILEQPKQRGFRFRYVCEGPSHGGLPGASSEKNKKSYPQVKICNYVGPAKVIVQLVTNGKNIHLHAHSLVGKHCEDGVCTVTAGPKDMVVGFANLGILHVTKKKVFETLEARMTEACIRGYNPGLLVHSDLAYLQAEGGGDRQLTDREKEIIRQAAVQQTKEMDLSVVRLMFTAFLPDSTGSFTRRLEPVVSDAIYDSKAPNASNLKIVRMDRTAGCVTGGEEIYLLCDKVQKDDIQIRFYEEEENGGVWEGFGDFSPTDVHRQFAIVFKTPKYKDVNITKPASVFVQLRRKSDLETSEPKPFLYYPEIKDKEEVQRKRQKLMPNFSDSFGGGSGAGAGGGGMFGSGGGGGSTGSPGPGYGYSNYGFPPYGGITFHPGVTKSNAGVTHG

Row | Substance | Kd [1] [nM] | Kd [2] [pM] | percent of the dimer bound to this IκB [3] [%]
1 | RelA dimerization domain (from UniProt Q04207 1-549) (domain or fragment) | 10 | – | –
2 | RelA:RelA homodimer (endogenous, MEF cytoplasmic extract) (from UniProt Q04207 1-549) (complex) | – | 3.2 | > 50
